EP2272524A2

Legend:
[1] = target: human Y1 receptor (human) (UniProt P25929); test: cell-based or functional assay
[2] = target: human Y4 receptor (human) (UniProt P50391); test: cell-based or functional assay
[3] = target: human Y2 receptor (human) (UniProt P49146); test: cell-based or functional assay
[4] = target: human Y5 receptor (human) (UniProt Q15761); test: cell-based or functional assay
[5] = target: human Y4 receptor (human) (UniProt P50391); test: competition binding, displacement of 125I-PP, COS-7 cells with human Y4
[6] = target: human Y5 receptor (human) (UniProt Q15761); test: competition binding, displacement of 125I-NPY, COS-7 cells with human Y5
[7] = target: human Y2 receptor (human) (UniProt P49146); test: competition binding, displacement of 125I-PYY, COS-7 cells with human Y2

Chain of UniProt P25929 (P25929 whole entry): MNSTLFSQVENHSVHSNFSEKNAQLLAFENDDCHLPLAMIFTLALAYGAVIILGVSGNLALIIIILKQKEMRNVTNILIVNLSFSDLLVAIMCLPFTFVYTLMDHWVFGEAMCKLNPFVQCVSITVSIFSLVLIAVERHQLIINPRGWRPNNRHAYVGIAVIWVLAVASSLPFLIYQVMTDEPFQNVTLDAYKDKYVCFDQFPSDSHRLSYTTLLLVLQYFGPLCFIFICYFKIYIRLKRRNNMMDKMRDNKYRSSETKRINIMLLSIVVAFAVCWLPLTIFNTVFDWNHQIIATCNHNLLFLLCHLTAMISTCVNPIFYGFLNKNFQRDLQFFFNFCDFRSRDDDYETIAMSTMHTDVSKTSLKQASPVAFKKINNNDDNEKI
Chain of UniProt Q15761 (Q15761 whole entry): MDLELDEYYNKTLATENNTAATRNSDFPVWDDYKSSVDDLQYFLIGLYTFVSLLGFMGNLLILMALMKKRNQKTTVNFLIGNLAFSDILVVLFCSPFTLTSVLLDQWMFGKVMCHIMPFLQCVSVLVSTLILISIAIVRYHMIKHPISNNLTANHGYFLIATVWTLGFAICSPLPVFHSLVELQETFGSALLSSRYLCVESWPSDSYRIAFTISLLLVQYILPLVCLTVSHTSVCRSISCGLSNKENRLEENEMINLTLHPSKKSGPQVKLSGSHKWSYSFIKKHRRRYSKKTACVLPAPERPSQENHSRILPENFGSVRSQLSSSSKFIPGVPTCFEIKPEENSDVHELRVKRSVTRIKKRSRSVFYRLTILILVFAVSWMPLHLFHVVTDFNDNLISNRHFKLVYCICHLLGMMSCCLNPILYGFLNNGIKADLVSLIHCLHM
Chain of UniProt P49146 (P49146 whole entry): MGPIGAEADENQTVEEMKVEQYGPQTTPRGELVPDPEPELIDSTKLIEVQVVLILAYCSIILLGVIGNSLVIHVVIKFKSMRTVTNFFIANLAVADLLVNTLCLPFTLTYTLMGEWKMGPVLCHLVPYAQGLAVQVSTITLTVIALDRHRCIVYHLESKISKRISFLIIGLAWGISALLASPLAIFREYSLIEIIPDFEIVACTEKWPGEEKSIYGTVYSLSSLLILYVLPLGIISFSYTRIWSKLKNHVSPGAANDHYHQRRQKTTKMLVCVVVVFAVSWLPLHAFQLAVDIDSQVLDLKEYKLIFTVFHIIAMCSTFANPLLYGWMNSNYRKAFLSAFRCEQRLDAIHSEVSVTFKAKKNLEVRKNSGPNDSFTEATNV
Chain of UniProt P50391 (P50391 whole entry): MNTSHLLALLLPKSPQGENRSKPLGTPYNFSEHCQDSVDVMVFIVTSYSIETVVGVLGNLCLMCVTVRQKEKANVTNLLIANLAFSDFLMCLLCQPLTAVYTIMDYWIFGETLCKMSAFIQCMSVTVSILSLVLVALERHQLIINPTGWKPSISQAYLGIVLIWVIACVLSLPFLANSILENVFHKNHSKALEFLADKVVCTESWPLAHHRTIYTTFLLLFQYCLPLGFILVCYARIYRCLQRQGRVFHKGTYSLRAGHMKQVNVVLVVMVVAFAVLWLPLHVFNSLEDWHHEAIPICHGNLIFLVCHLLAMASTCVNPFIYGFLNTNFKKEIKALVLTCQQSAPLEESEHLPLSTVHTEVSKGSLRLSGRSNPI

Row | EC50, inositol phosphate turnover (potency assay) [1] [nM] | EC50, inositol phosphate turnover (potency assay) [2] [nM] | EC50, inositol phosphate turnover (potency assay) [3] [nM] | EC50, inositol phosphate turnover (potency assay) [4] [nM] | IC50 [5] [nM] | IC50 [6] [nM] | IC50 [7] [nM] | Substance
1 | > 1000 | > 1000 | – | – | – | – | – | [Cys2,D-Cys27]PYY (peptide)
2 | 38 | 64 | 0.17 | 3.8 | 6 | 0.87 | 0.21 | [Lys4,Gln34]PP (peptide)
3 | > 1000 | > 1000 | 1.9 | – | 300 | 36 | 0.6 | [Cys2,D-Cys27]PYY2-36 (peptide)
